Values of other authors in PMC5100577.

Target: H2A-H2B dimer (Saccharomyces cerevisiae) (UniProt P04911)
Assay: fluorescence dequenching

Chain of UniProt P04911 (P04911 2-132, chain 1 of 2): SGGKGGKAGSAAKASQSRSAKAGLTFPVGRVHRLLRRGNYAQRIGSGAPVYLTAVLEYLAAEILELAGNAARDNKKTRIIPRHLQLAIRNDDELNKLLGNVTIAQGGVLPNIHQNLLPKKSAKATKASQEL
Chain of UniProt P04911 (P02293 2-131, chain 2 of 2, further chain): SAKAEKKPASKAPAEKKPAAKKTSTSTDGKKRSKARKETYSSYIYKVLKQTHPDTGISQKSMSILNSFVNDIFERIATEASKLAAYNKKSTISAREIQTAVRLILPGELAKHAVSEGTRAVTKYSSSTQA

- Kd: 0.0214 µM
Substance: FACT (from UniProt P32558)
